From US20090023139A1, “Method For Site-Specifically Introducing Non-Natural Amino Acid Into Protien Using Mitochondrial Protein and Method For Effectively Preparing Trna” (priority 2004, published 2009) come the findings set out here.

One assay concerns mt tRNA^Trp. The assay can be described thus: Assay of aminoacylation activity using 14C tryptophan. In kind it is biochemical, yeast. Particulars: 30° C., 0-16 minutes; mtWRS with mt tRNA^Trp; FIG. 11. As to the method:
In order to assay enzyme activity, aminoacylation was carried out using ^14C tryptophan. The reaction solution having the composition shown below was heated at 30° C. for about 5 minutes while the enzyme was removed therefrom. Thereafter, the enzyme was added, the mixture was incubated at 30° C., the mixture was spotted on a filter wetted with 5% TCA 0, 1, 4, 9, and 16 minutes after incubation, and the filter was then soaked in 5% TCA. After spotting of the reaction solution at each time point was completed, 5% TCA was discarded, and fresh 5% TCA was added to the beaker, followed by shaking for 10 minutes. This procedure was repeated twice, 100% ethanol was added, and the mixture was lightly shaken, followed by dehydration under an electric heat. Thereafter, the resultant was soaked in a scintillator, and the samples were counted using a liquid scintillation counter.
The reaction solution for aminoacylation (50 μl) was prepared by diluting 10 μl of 5×AAM (aminoacylation mixture), 0.05 A260 units of mt tRNA^Trp, an adequate amount of enzyme (depending on the concentration), and 2 μl of ^14C tryptophan in dH2O.
The 5×AAM (aminoacylation mixture) comprised 500 mM Tris-HCl (pH 7.6), 50 mM MgCl2, 200 mM KCl, and 20 mM ATP.
A scintillator (1 liter) was prepared by diluting 4 g of Dotite DPO and 0.1 g of Dotite POPOP in toluene.

The subject of assay [1] is tRNA^Tyr precursor having on the 5′ end an additional sequence. The assay can be described thus: Confirmation of C5 protein and M1 RNA (RNase P) cleavage activity. In kind it is biochemical. Particulars: 150 pmol tRNA^Tyr precursor; 7M urea denatured polyacrylamide gel, methylene blue; FIG. 7. How it is done: In order to assay enzyme activity, 150 pmol of the tRNA^Tyr precursor having on the 5′ end an additional sequence was subjected to the reaction with 30 pmol of C5 proteins and […] of M1 RNA. The reaction buffer comprises 50 mM Tris-HCl (pH 7.4), 10 mM MgCl2, and 100 mM NH4Cl. The reaction solution was separated using a 7M urea-containing denatured polyacrylamide gel, and nucleic acid components were stained with methylene blue.

B1: mtWRS: yeast (Saccharomyces cerevisiae) mitochondrial tryptophanyl tRNA synthetase, SEQ ID NO: 2, His-tagged, expressed from pYC2WRS (protein)
chain: ISTVQRADFKLNSEALHSNATVFSMIQPTGCFHLGNYLGATRVWTDLCELKQPGQELIFGVADLHAITVPKPDGEMFRKFRHEAVASILAVGVDPEKASVIYQSAIPQHSELHWLLSTLASMGLLNRMTQWKSKSNIKQSTNGDYLVNDSDVGKVRLGLFSYPVLQAADILLYKSTHVPVGDDQSQHLELTRHLAEKFNKMYKKNFFPKPVTMLAQTKKVLSLSTPEKKMSKSDPNHDSVIFLNDEPKAIQKKIRKALTDSISDRFYYDPVERPGVSNLINIVSGIQRKSIEDVVEDVSRFNNYRDFKDYVSEVIIEELKGPRTEFEKYINEPTYLHSVVESGMRKAREKAAKNLADIHKIMGF
modifications: His tag
In the case of B1, the “capacity of tRNA for accepting 14C-tryptophan” value in the assay on mt tRNA^Trp was “acceptance of tryptophan was observed”.

B2: C5 protein: protein component of E. coli RNase P (rnpA gene), expressed from pETC5 (protein, UniProt P0A7Y8 1-119, looked up)
Ribonuclease P protein …: MVKLAFPRELRLLTPSQFTFVFQQPQRAGTPQITILGRLNSLGHPRIGLTVAKKNVRRAHERNRIKRLTRESFRLRQHELPAMDFVVVAKKGVADLDNRALSEALEKLWRRHCRLARGS
B2: the cleavage activity entry in assay [1] was “Cleavage activity could not be confirmed”.
